According to patent publication US20210380657A1 (COUNCIL OF THE QUEENSLAND INSTITUTE OF MEDICAL RESEARCH, published 2021):
Numbering of substitutions follows the chain as printed. Names may count otherwise.

B1: TCR Clone 1 of Donor R7Z in Table 3 (TCR, V domains shown)
V domain 1: KQEVTQIPAALSVPEGENLVLNCSFTDSAIYNLQWFRQDPGKGLTSLLLIQSSQREQTSGRLNASLDKSSGRSTLYIAASQPGDSATYLCAVWAGGTSYGKLTFGQGTILTVHP
V domain 2: DVKVTQSSRYLVKRTGEKVFLECVQDMDHENMFWYRQDPGLGLRLIYFSYDVKMKEKGDIPEGYSVSREKKERFSLILESASTNQTSMYLCASSPAGRPGKPLHFGNGTRLTVTE
notes: also called Donor R7Z Clone 1
B2: TCR Clone 3 of Donor T3V in Table 3 (TCR, V domains shown)
V domain 1: AGQSLEQPSEVTAVEGAIVQINCTYQTSGFYGLSWYQQHDGGAPTFLSYNALDGLEETGRFSSFLSRSDSYGYLLLQELQMKDSASYFCAVPRRNNNARLMFGDGTQLVVKP
V domain 2: EAQVTQNPRYLITVTGKKLTVTCSQNMNHEYMSWYRQDPGLGLRQIYYSMNVEVTDKGDVPEGYKVSRKEKRNFPLILESPSPNQTSLYFCASSLNTGMNTEAFFGQGTRLTVVE
notes: also called Donor T3V Clone 3
B3: TCR Clone 2 of Donor B5F in Table 3 (TCR, V domains shown)
V domain 1: GESVGLHLPTLSVQEGDNSIINCAYSNSASDYFIWYKQESGKGPQFIIDIRSNMDKRQGQRVTVLLNKTVKHLSLQIAATQPGDSAVYFCAETPGGYQKVTFGTGTKLQVIP
V domain 2: EAQVTQNPRYLITVTGKKLTVTCSQNMNHEYMSWYRQDPGLGLRQIYYSMNVEVTDKGDVPEGYKVSRKEKRNFPLILESPSPNQTSLYFCASSLWTSNSPLHFGNGTRLTVTE
notes: also called Donor B5F Clone 2
B4: TCR Clone 5 of Donor R7Z in Table 3 (TCR, V domains shown)
V domain 1: GIQVEQSPPDLILQEGANSTLRCNFSDSVNNLQWFHQNPWGQLINLFYIPSGTKQNGRLSATTVATERYSLLYISSSQTTDSGVYFCAVVGNNDMRFGAGTRLTVKP
V domain 2: DSGVTQTPKHLITATGQRVTLRCSPRSGDLSVYWYQQSLDQGLQFLIQYYNGEERAKGNILERFSAQQFPDLHSELNLSSLELGDSALYFCASSVAPWYEQYFGPGTRLTVTE
notes: also called Donor R7Z Clone 5
B5: TCR Clone 2 of Donor R7Z in Table 3 (TCR, V domains shown)
V domain 1: B4 V domain 1 with G91I
V domain 2: B4 V domain 2 with W98F
notes: also called Donor R7Z Clone 2
B6: TCR Clone 1 of Donor B5F in Table 3 (TCR, V domains shown)
V domain 1: B4 V domain 1 with V90L, G91N
V domain 2: B4 V domain 2 with A96S, P97S, Y102F, T112L
notes: also called Donor B5F Clone 1
B7: TCR Clone 1 of Donor A4T in Table 3 (TCR, V domains shown)
V domain 1: DQQVKQNSPSLSVQEGRISILNCDYTNSMFDYFLWYKKYPAEGPTFLISISSIKDKNEDGRFTVFLNKSAKHLSLHIVPSQPGDSAVYFCAASGLVEGNTPLVFGKGTRLSVIA
V domain 2: EAGVAQSPRYKIIEKRQSVAFWCNPISGHATLYWYQQILGQGPKLLIQFQNNGVVDDSQLPKDRFSAERLKGVDSTLKIQPAKLEDSAVYLCASSLFPGTGIHEQYFGPGTRLTVTE
notes: also called Donor A4T Clone 1
B8: TCR Clone 3 of Donor R7Z in Table 3 (TCR, V domains shown)
V domain 1: AQSVAQPEDQVNVAEGNPLTVKCTYSVSGNPYLFWYVQYPNRGLQFLLKYITGDNLVKGSYGFEAEFNKSQTSFHLKKPSALVSDSALYFCAVREASGANNLFFGTGTRLTVIP
V domain 2: SQTIHQWPATLVQPVGSPLSLECTVEGTSNPNLYWYRQAAGRGLQLLFYSVGIGQISSEVPQNLSASRPQDRQFILSSKKLLLSDSGFYLCAWSPQGNSPLHFGNGTRLTVTE
notes: also called Donor R7Z Clone 3
B9: TCR Clone 1 of Donor T3V in Table 3 (TCR, V domains shown)
V domain 1: DQQVKQNSPSLSVQEGRISILNCDYTNSMFDYFLWYKKYPAEGPTFLISISSIKDKNEDGRFTVFLNKSAKHLSLHIVPSQPGDSAVYFCAASAGGQNFVFGPGTRLSVLP
V domain 2: DAGITQSPRHKVTETGTPVTLRCHQTENHRYMYWYRQDPGHGLRLIHYSYGVKDTDKGEVSDGYSVSRSKTEDFLLTLESATSSQTSVYFCAIRRGGSSYNEQFFGPGTRLTVLE
notes: also called Donor T3V Clone 1
B10: TCR Clone 4 of Donor R7Z in Table 3 (TCR, V domains shown)
V domain 1: AQSVTQLDSHVSVSEGTPVLLRCNYSSSYSPSLFWYVQHPNKGLQLLLKYTSAATLVKGINGFEAEFKKSETSFHLTKPSAHMSDAAEYFCVVSYLGDTGRRALTFGSGTRLQVQP
V domain 2: EPEVTQTPSHQVTQMGQEVILRCVPISNHLYFYWYRQILGQKVEFLVSFYNNEISEKSEIFDDQFSVERPDGSNFTLKIRSTKLEDSAMYFCASSESGSPTGELFFGEGSRLTVLE
notes: also called Donor R7Z Clone 4
B11: TCR Clone 1 of Donor P6G in Table 3 (TCR, V domains shown)
V domain 1: KQEVTQIPAALSVPEGENLVLNCSFTDSAIYNLQWFRQDPGKGLTSLLLIQSSQREQTSGRLNASLDKSSGRSTLYIAASQPGDSATYLCAVGGDDSGAGSYQLTFGKGTKLSVIP
V domain 2: DSGVTQTPKHLITATGQRVTLRCSPRSGDLSVYWYQQSLDQGLQFLIQYYNGEERAKGNILERFSAQQFPDLHSELNLSSLELGDSALYFCASSRPEGIYNEQFFGPGTRLTVLE
notes: also called Donor P6G Clone 1
B12: TCR Clone 1 of Donor B33 in Table 5 (TCR, V domains shown)
V domain 1: GQQVMQIPQYQHVQEGEDFTTYCNSSTTLSNIQWYKQRPGGHPVFLIQLVKSGEVKKQKRLTFQFGEAKKNSSLHITATQTTDVGTYFCAGPGTGAGSYQLTFGKGTKLSVIP
V domain 2: DVKVTQSSRYLVKRTGEKVFLECVQDMDHENMFWYRQDPGLGLRLIYFSYDVKMKEKGDIPEGYSVSREKKERFSLILESASTNQTSMYLCASIKSSGYNEQFFGPGTRLTVLE
notes: also called Donor B33 Clone 1
B13: TCR Clone 1 of Donor B5F in Table 5 (TCR, V domains shown)
V domain 1: B12 V domain 1 with G93Y, T94S
V domain 2: B12 V domain 2 with K95L
notes: also called Donor B5F Clone 1
B14: TCR Clone 1 of Donor Y6W in Table 5 (TCR, V domains shown)
V domain 1: SLAKTTQPISMDSYEGQEVNITCSHNNIATNDYITWYQQFPSQGPRFIIQGYKTKVTNEVASLFIPADRKSSTLSLPRVSLSDTAVYYCLVVPFGGYNKLIFGAGTRLAVHP
V domain 2: SAVISQKPSRDICQRGTSLTIQCQVDSQVTMMFWYRQQPGQSLTLIATANQGSEATYESGFVIDKFPISRPNLTFSTLTVSNMSPEDSSIYLCSVGEGTSGYESYNEQFFGPGTRLTVLE
notes: also called Donor Y6W Clone 1
B15: TCR Clone 3 of Donor Y6W in Table 5 (TCR, V domains shown)
V domain 1: GENVEQHPSTLSVQEGDSAVIKCTYSDSASNYFPWYKQELGKGPQLIIDIRSNVGEKKDQRIAVTLNKTAKHFSLHITETQPEDSAVYFCAASEFQFYFGTGTSLTVIP
V domain 2: DSGVTQTPKHLITATGQRVTLRCSPRSGDLSVYWYQQSLDQGLQFLIQYYNGEERAKGNILERFSAQQFPDLHSELNLSSLELGDSALYFCASSPGQRANTGELFFGEGSRLTVLE
notes: also called Donor Y6W Clone 3
B16: TCR Clone 2 of Donor Y6W in Table 5 (TCR, V domains shown)
V domain 1: QKEVEQNSGPLSVPEGAIASLNCTYSDRGSQSFFWYRQYSGKSPELIMFIYSNGDKEDGRFTAQLNKASQYVSLLIRDSQPSDSATYLCAVNVGNTGFQKLVFGTGTRLLVSP
V domain 2: SQTIHQWPATLVQPVGSPLSLECTVEGTSNPNLYWYRQAAGRGLQLLFYSVGIGQISSEVPQNLSASRPQDRQFILSSKKLLLSDSGFYLCACQWQGLGGELFFGEGSRLTVLE
notes: also called Donor Y6W Clone 2
B17: TCR Clone 6 of Donor Y6W in Table 5 (TCR, V domains shown)
V domain 1: QKEVEQNSGPLSVPEGAIASLNCTYSDRGSQSFFWYRQYSGKSPELIMFIYSNGDKEDGRFTAQLNKASQYVSLLIRDSQPSDSATYLCAAEPFSSYKLIFGSGTRLLVRP
V domain 2: GAGVSQSPSNKVTEKGKDVELRCDPISGHTALYWYRQSLGQGLEFLIYFQGNSAPDKSGLPSDRFSAERTGGSVSTLTIQRTQQEDSAVYLCASSFIGGTGLNEQFFGPGTRLTVLE
notes: also called Donor Y6W Clone 6

target: HLA-A*11:01-… (human; Epstein Barr Virus); assay: HLA-peptide multimer staining and single-cell sorting of CD8+ T cells, paired TCR sequencing
Procedure: (§1) T cell lines were labelled with an allophycocyanin (APC)-conjugated HLA-peptide multimer (ProImmune Ltd., Oxford, UK) by incubation for 30 minutes at room temperature. Cells were then washed and incubated with Cy5.5-PerCP conjugated anti-human CD8 mAb (BioLegend, San Diego, Calif.) for 30 minutes at 4° C. Cells were washed, analyzed and sorted as single cells into 96-well PCR plates (Eppendorf, Hamburg, Germany) using the FACS Aria III flow cytometer (BD Biosciences).

| Binder | binding result |
| --- | --- |
| B1 | binds |
| B2 | binds |
| B3 | binds |
| B4 | binds |
| B5 | binds |
| B6 | binds |
| B7 | binds |
| B8 | binds |
| B9 | binds |
| B10 | binds |
| B11 | binds |

target: HLA-A*24:02-… (human; Epstein Barr Virus); assay: as above
Procedure: as §1

| Binder | binding result |
| --- | --- |
| B12 | binds |
| B13 | binds |
| B14 | binds |
| B15 | binds |
| B16 | binds |
| B17 | binds |
